Test results from patent US20090137003A1.

Target: RSV protein F (recombinant or purified F protein) (respiratory syncytial virus (RSV), strain not stated)
Assay: SPR (Biacore), Fab on recombinant antigen

Fab fragments derived from commercially available Palivizumab (Synagis)
Kd: 3.78 nM | koff: 0.000757 s⁻¹ | kon: 200000 M⁻¹ s⁻¹ | t1/2: 15 min
